Measurements taken from IntAct's records for PubMed 25531777.

B1: Rho-related GTP-binding protein Rho6 (Homo sapiens), Q92730 (parent)
chain: MKERRAPQPVVARCKLVLVGDVQCGKTAMLQVLAKDCYPETYVPTVFENYTACLETEEQRVELSLWDTSGSPYYDNVRPLCYSDSDAVLLCFDISRPETVDSALKKWRTEILDYCPSTRVLLIGCKTDLRTDLSTLMELSHQKQAPISYEQGCAIAKQLGAEIYLEGSAFTSEKSIHSIFRTASMLCLNKPSPLPQKSPVRSLSKRLLHLPSRSELISSTFKKEKAKSCSIM

Variants of: B1
Conditions: with PLXNB1, O43157-1
Chain of PLXNB1, O43157-1 (O43157 whole entry): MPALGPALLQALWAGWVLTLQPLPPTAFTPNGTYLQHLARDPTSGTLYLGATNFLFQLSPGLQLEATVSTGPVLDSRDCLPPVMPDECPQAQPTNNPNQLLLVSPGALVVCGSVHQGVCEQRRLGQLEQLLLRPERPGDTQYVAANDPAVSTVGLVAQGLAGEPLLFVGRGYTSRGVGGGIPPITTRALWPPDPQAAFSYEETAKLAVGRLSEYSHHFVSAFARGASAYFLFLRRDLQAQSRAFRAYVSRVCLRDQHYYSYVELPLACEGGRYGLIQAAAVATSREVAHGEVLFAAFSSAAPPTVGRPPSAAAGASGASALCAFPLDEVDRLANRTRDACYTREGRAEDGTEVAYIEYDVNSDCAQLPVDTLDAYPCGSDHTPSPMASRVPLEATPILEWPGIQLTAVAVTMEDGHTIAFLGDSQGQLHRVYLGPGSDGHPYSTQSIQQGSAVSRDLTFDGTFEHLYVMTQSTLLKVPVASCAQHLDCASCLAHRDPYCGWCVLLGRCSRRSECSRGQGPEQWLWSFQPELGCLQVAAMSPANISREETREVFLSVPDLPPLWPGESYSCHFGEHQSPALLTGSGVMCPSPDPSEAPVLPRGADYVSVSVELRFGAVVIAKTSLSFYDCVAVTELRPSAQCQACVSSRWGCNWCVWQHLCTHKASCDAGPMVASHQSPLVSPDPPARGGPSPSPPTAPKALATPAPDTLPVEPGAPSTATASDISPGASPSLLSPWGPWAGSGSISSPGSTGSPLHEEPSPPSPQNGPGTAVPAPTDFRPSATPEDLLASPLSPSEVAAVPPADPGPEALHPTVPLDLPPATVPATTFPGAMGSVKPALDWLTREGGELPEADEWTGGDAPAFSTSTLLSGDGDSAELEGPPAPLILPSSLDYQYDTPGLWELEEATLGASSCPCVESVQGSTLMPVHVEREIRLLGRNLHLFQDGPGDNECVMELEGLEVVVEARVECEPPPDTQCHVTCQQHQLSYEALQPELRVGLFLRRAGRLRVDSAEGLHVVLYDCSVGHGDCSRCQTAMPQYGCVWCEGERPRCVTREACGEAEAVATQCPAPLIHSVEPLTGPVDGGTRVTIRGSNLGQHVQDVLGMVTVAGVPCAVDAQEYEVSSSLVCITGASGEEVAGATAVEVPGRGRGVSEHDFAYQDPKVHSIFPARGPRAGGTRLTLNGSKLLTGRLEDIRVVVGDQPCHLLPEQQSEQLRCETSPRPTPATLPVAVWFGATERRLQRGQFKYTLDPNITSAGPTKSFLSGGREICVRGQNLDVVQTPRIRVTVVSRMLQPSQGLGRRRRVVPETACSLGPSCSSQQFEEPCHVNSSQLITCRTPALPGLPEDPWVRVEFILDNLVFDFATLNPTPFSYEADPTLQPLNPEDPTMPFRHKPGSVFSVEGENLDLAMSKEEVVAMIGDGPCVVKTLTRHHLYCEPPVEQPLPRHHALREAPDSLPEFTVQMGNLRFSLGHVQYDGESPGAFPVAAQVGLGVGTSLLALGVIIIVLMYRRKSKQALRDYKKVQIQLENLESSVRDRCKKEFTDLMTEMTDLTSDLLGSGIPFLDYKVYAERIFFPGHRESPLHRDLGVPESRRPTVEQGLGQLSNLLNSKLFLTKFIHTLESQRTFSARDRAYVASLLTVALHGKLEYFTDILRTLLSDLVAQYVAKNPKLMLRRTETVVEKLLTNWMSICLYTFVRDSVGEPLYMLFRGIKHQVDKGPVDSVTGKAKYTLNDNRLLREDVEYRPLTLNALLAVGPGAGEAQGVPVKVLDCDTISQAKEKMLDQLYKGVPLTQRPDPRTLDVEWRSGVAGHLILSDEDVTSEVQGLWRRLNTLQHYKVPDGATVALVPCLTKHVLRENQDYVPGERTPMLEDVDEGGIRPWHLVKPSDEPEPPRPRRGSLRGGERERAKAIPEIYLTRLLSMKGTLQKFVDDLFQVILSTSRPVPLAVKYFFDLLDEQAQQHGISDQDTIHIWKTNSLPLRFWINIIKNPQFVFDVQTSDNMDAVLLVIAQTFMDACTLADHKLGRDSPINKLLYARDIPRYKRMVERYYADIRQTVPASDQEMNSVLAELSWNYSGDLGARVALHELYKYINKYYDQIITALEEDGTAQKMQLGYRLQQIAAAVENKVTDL

Variant | effect of a mutation on the interaction
MKERRAPQPVVARCKLVLVGDVQCGKTAMLQVLAKDCYPETYVPAVFENYTACLETEEQRVELSLWDTSGSPYYDNVRPLCYSDSDAVLLCFDISRPETVDSALKKWRTEILDYCPSTRVLLIGCKTDLRTDLSTLMELSHQKQAPISYEQGCAIAKQLGAEIYLEGSAFTSEKSIHSIFRTASMLCLNKPSPLPQKSPVRSLSKRLLHLPSRSELISSTFKKEKAKSCSIM [T45A] | disrupting interaction strength
MKERRAPQPVVARCKLVLVGDVQCGKTAMLQVLAKDCYPETYVPTVFANYTACLETEEQRVELSLWDTSGSPYYDNVRPLCYSDSDAVLLCFDISRPETVDSALKKWRTEILDYCPSTRVLLIGCKTDLRTDLSTLMELSHQKQAPISYEQGCAIAKQLGAEIYLEGSAFTSEKSIHSIFRTASMLCLNKPSPLPQKSPVRSLSKRLLHLPSRSELISSTFKKEKAKSCSIM [E48A] | disrupting interaction strength

Variants of: B1
Conditions: with PLXNB1, O43157-1
Remark: another data set of the same source

Variant | effect of a mutation on the interaction
MKERRAPQPVVARCKLVLVGDVQCGKTAMLQVLAKDCYPETYVPTVFENYTACLETEEQRVELSLWDTSGSPYYDNVRPLCYSDSDAVLLCFDISRPETVDSALKKWRTEILDYCPSTRVLLIGCKTDLRTDLSTLMELSHQKQAPISYEQGCAIAKQLGAEIYLEGSAFTSEKSIHSICRTASMLCLNKPSPLPQKSPVRSLSKRLLHLPSRSELISSTFKKEKAKSCSIM [F180C] | disrupting interaction strength
MKERRAPQPVVARCKLVLVGDVQCGKTAMLQVLAKDCYPETYVPTVFENYTACLETEEQRVELSLWDTSGSPYYDNVRPLCYSDSDAVLLCFDISRPDTVDSALKKWRTEILDYCPSTRVLLIGCKTDLRTDLSTLMELSHQKQAPISYEQGCAIAKQLGAEIYLEGSAFTSEKSIHSIFRTASMLCLNKPSPLPQKSPVRSLSKRLLHLPSRSELISSTFKKEKAKSCSIM [E98D] | disrupting interaction strength
MKERRAPQPVVARCKLVLVGDVQCGKTAMLQVLAKDCYPETYVPTVFENYTACLETEEQRVELSLWDTSRSPYYDNVRPLCYSDSDAVLLCFDISRPETVDSALKKWRTEILDYCPSTRVLLIGCKTDLRTDLSTLMELSHQKQAPISYEQGCAIAKQLGAEIYLEGSAFTSEKSIHSIFRTASMLCLNKPSPLPQKSPVRSLSKRLLHLPSRSELISSTFKKEKAKSCSIM [G70R] | disrupting interaction strength
